# Source: the supplement of paper PMC10126150
# ± gives the standard deviation of the averaged measurements.
# Tested on: ATP
# Assay: switch fluorescence ratio, 500 uM ATP over buffer (Cy3 cluster intensity, sum of 5 cycles each) (fold (ratio)); higher = stronger signal-on switching upon ATP binding; sequences stand for … in TCGTCGGCAGCGTCAGATGTGTATAAGAGACAGTTTTTTTTTTTTTTTTTTTTTTTTT…TC
# Settings: aptamer strand: ATP DNA aptamer (quencher-CACCTGGGGGAGTATTGCGGAGGAAGG + anchor), 100 nM annealed; ATP concentration: 500 uM
# Outline: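 Five buffer/ATP imaging cycles were run on Cy3-labelled switching-strand clusters on a modified Illumina MiSeq flow-cell, with NaOH stripping and re-annealing between cycles. In each cycle, clusters annealed to 100 nM quencher-labelled ATP aptamer were imaged in selection buffer, then after 15 min with 500 uM ATP at 22 °C. Per cluster, the fluorescence ratio is summed target-cycle over summed buffer-cycle Cy3 intensity, averaged per switch-domain sequence. Only clusters within 100-1000 RFU were kept.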
# 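Also: ATP exposure 15 min at 22 °C before imaging.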
row,Sequence,switch fluorescence ratio
1,TCAGGGACAG,1.02 ± 0.021
2,TCAGGGCAGC,1.01 ± 0.019
3,TCAGGGCGAT,1.03 ± 0.026
4,TCAGGGGCTT,1.16 ± 0.28
5,TCAGGGGGAA,1.01 ± 0.024
6,TCAGGGGTTA,1.03 ± 0.031
7,TCAGGGGTTC,0.9918 ± 0.0084
8,TCAGGGTTGA,1.03 ± 0.044
9,TCAGGTCTGT,0.9958 ± 0.0074
10,TCAGTAATAA,1.345 ± 0.013
11,TCAGTAGGCT,1.043 ± 0.0032
12,TCAGTCATGT,0.992 ± 0.028
13,TCAGTTATTT,1.04 ± 0.055
14,TCAGTTGACT,1.011 ± 0.0055
15,TCAGTTGTTG,1 ± 0.045
16,TCAGTTTGAG,0.97806 ± 0.0007
17,TCAGTTTTAT,0.9726 ± 0.0074
18,TCATAAGTAT,0.995 ± 0.086
19,TCATAGCGCC,1.01 ± 0.045
20,TCATAGTTGG,0.979 ± 0.025
21,TCATAGTTGT,1.01 ± 0.051
22,TCATAGTTTT,1.01 ± 0.042
23,TCATATTATC,1 ± 0.029
24,TCATATTGGA,0.979 ± 0.015
25,TCATATTTGT,0.981 ± 0.019

row,Sequence,switch fluorescence ratio
1,TCATATTTTT,1.006 ± 0.0064
2,TCATCAAGGG,0.965 ± 0.012
3,TCATCGCATG,1.3 ± 0.016
4,TCATCGGCTC,1.32 ± 0.11
5,TCATCGGGGC,1.03 ± 0.071
6,TCATCGGGTC,1.05 ± 0.017
7,TCATCGGTTC,1 ± 0.052
8,TCATCGGTTT,0.977 ± 0.017
9,TCATCTACTT,1.02 ± 0.041
10,TCATCTTAAT,0.992 ± 0.044
11,TCATGACAGC,1 ± 0.034
12,TCATGAGAGT,0.998 ± 0.011
13,TCATGAGGGA,1.02 ± 0.022
14,TCATGCTTGT,0.985 ± 0.035
15,TCATGGAGGC,1.02 ± 0.041
16,TCATGGATTT,1.01 ± 0.026
17,TCATGGCACC,1.05 ± 0.025
18,TCATGGCGCA,1.07 ± 0.013
19,TCATGGGAAG,1.02 ± 0.077
20,TCATGGGGGT,0.995 ± 0.028
21,TCATGGGGTC,0.975 ± 0.022
22,TCATGGGTTT,0.997 ± 0.04
23,TCATGTGCAT,1.129 ± 0.0048
24,TCATGTTTTG,0.9969 ± 0.0032
25,TCATTAAGAT,0.994 ± 0.053

row,Sequence,switch fluorescence ratio
1,TCATTAATAG,0.996 ± 0.012
2,TCATTAGGAA,1 ± 0.035
3,TCATTCCTTT,1.008 ± 0.0063
4,TCATTCGGTT,1.02 ± 0.016
5,TCATTCTAGG,1.009 ± 0.0031
6,TCATTGGGAC,1.06 ± 0.028
7,TCATTGGTAA,0.977 ± 0.047
8,TCATTGTGCT,0.975 ± 0.015
9,TCATTTAGAG,0.977 ± 0.019
10,TCATTTAGGT,0.967 ± 0.013
11,TCATTTATGT,0.9665 ± 0.0014
12,TCATTTGGGA,1.008 ± 0.0033
13,TCCAACTGCT,1.037 ± 0.0035
14,TCCAAGGGCA,1.01 ± 0.015
15,TCCACACGCT,2.14 ± 0.25
16,TCCACATATC,1.5 ± 0.0073
17,TCCACGATTA,1.108 ± 0.011
18,TCCACTTATT,1.05 ± 0.093
19,TCCAGCGCAC,3.81 ± 1.1
20,TCCAGCGCGG,1.14 ± 0.015
21,TCCAGGACGA,1.05 ± 0.023
22,TCCAGGACTA,1.02 ± 0.015
23,TCCAGGGGAT,1.07 ± 0.12
24,TCCAGGGTTT,1.06 ± 0.04
25,TCCAGGTTGG,1.15 ± 0.048

row,Sequence,switch fluorescence ratio
1,TCCAGTATGG,1.012 ± 0.008
2,TCCAGTTAGG,0.998 ± 0.051
3,TCCATATGGT,0.975 ± 0.023
4,TCCATCAGTA,0.985 ± 0.024
5,TCCATGGGAT,1.007 ± 0.0014
6,TCCATGTAA,1.01 ± 0.045
7,TCCCACTTCG,1.03 ± 0.053
8,TCCCAGTGCT,1.84 ± 0.21
9,TCCCATATAT,1.09 ± 0.014
10,TCCCATGTTG,1.05 ± 0.054
11,TCCCCCGCCG,1.09 ± 0.12
12,TCCCCCTGGT,1.37 ± 0.069
13,TCCCCTGGTT,1.64 ± 0.14
14,TCCCCTGTGT,1.86 ± 0.54
15,TCCCGGGAAT,0.987 ± 0.031
16,TCCCGGTAGT,1.01 ± 0.019
17,TCCCTAACAC,1.12 ± 0.023
18,TCCCTACTGT,1.02 ± 0.017
19,TCCCTGGGGG,1.08 ± 0.11
20,TCCCTTGGTT,1.05 ± 0.054
21,TCCGACTGAT,1.72 ± 0.05
22,TCCGAGATCT,1.08 ± 0.053
23,TCCGAGGTTT,1.28 ± 0.044
24,TCCGATGAGG,1.05 ± 0.074
25,TCCGATGCGT,2.97 ± 2.8
